Test results: PMC6753178
Where two headings read alike, the source gives them in different places. Blank lines part the entries; values can stand above or below the molecule they belong to.

What was measured:
[1] = target: human CCR7 wild type (human) (UniProt P32248)
CCR7 Y308A (human) = CCR7 Y308A (human) (UniProt P32248)
CCR7 K57A (human) = CCR7 K57A (human) (UniProt P32248)
CCR7 K137A (human) = CCR7 K137A (human) (UniProt P32248)
CCR7 K50A (human) = CCR7 K50A (human) (UniProt P32248)
CCR7 E193A (human) = CCR7 E193A (human) (UniProt P32248)
CCR7 F107A (human) = CCR7 F107A (human) (UniProt P32248)
CCR7 R209A (human) [2] = target: CCR7 R209A (human) (UniProt P32248)
CCR7 R54A (human) [3] = target: CCR7 R54A (human) (UniProt P32248)
CCR7 N305A (human) = CCR7 N305A (human) (UniProt P32248)
CCR7 L61A (human) [4] = target: CCR7 L61A (human) (UniProt P32248)
CCR7 W114A (human) [5] = target: CCR7 W114A (human) (UniProt P32248)
CCR7 F133A (human) = CCR7 F133A (human) (UniProt P32248)
CCR7 A118S (human) = CCR7 A118S (human) (UniProt P32248)
CCR7 Y65A (human) = CCR7 Y65A (human) (UniProt P32248)
CCR7 S117A (human) = CCR7 S117A (human) (UniProt P32248)
CCR7 E205A (human) = CCR7 E205A (human) (UniProt P32248)
CCR7 R209A (human) [6] = target: CCR7 R209A (human) (UniProt P32248); remark: listed apart in the source
[7] = target: human CCR7 wild type (human) (UniProt P32248); remark: listed apart in the source
[8] = target: human CCR7 wild type (human) (UniProt P32248); remark: listed apart in the source
CCR7 R209A (human) [9] = target: CCR7 R209A (human) (UniProt P32248); remark: listed apart in the source
CCR7 R54A (human) [10] = target: CCR7 R54A (human) (UniProt P32248); remark: listed apart in the source
CCR7 L61A (human) [11] = target: CCR7 L61A (human) (UniProt P32248); remark: listed apart in the source
CCR7 W114A (human) [12] = target: CCR7 W114A (human) (UniProt P32248); remark: listed apart in the source

G protein signaling (BRET cAMP Camyel sensor, CHO-k1 cells transfected with CCR7): signal at 100 nM chemokine, normalized to CCL19 [1]: 92% | G protein signaling (BRET cAMP Camyel sensor, transfected CHO-k1 cells): -logEC50 (M) of CCL19 (CCR7 Y308A (human)): 9.1 -logEC50 (M) | G protein signaling (BRET cAMP Camyel sensor, transfected CHO-k1 cells): FMut, fold change of CCL19 potency compared to WT CCR7 (CCR7 Y308A (human)): 2 fold | G protein signaling (BRET cAMP Camyel sensor, transfected CHO-k1 cells): -logEC50 (M) of CCL19 (CCR7 K57A (human)): 9.2 -logEC50 (M) | G protein signaling (BRET cAMP Camyel sensor, transfected CHO-k1 cells): FMut, fold change of CCL19 potency compared to WT CCR7 (CCR7 K57A (human)): 2 fold | G protein signaling (BRET cAMP Camyel sensor, transfected CHO-k1 cells): -logEC50 (M) of CCL19 (CCR7 K137A (human)): 9.2 -logEC50 (M) | G protein signaling (BRET cAMP Camyel sensor, transfected CHO-k1 cells): FMut, fold change of CCL19 potency compared to WT CCR7 (CCR7 K137A (human)): 3 fold | G protein signaling (BRET cAMP Camyel sensor, transfected CHO-k1 cells): -logEC50 (M) of CCL19 (CCR7 K50A (human)): 8.5 -logEC50 (M) | G protein signaling (BRET cAMP Camyel sensor, transfected CHO-k1 cells): FMut, fold change of CCL19 potency compared to WT CCR7 (CCR7 K50A (human)): 13 fold | G protein signaling (BRET cAMP Camyel sensor, transfected CHO-k1 cells): -logEC50 (M) of CCL19 (CCR7 E193A (human)): 9.6 -logEC50 (M) | G protein signaling (BRET cAMP Camyel sensor, transfected CHO-k1 cells): FMut, fold change of CCL19 potency compared to WT CCR7 (CCR7 E193A (human)): 3 fold | G protein signaling (BRET cAMP Camyel sensor, transfected CHO-k1 cells): -logEC50 (M) of CCL19 (CCR7 F107A (human)): 8.9 -logEC50 (M) | G protein signaling (BRET cAMP Camyel sensor, transfected CHO-k1 cells): FMut, fold change of CCL19 potency compared to WT CCR7 (CCR7 F107A (human)): 2 fold | G protein signaling (BRET cAMP Camyel sensor, transfected CHO-k1 cells): -logEC50 (M) of CCL19 (CCR7 R209A (human) [2]): 8.5 -logEC50 (M) | G protein signaling (BRET cAMP Camyel sensor, transfected CHO-k1 cells): FMut, fold change of CCL19 potency compared to WT CCR7 (CCR7 R209A (human) [2]): 8 fold | G protein signaling (BRET cAMP Camyel sensor, transfected CHO-k1 cells): -logEC50 (M) of CCL19 (CCR7 R54A (human) [3]): 7.1 -logEC50 (M) | G protein signaling (BRET cAMP Camyel sensor, transfected CHO-k1 cells): FMut, fold change of CCL19 potency compared to WT CCR7 (CCR7 R54A (human) [3]): 100 fold | G protein signaling (BRET cAMP Camyel sensor, transfected CHO-k1 cells): -logEC50 (M) of CCL19 (CCR7 N305A (human)): 8.6 -logEC50 (M) | G protein signaling (BRET cAMP Camyel sensor, transfected CHO-k1 cells): FMut, fold change of CCL19 potency compared to WT CCR7 (CCR7 N305A (human)): 4 fold | G protein signaling (BRET cAMP Camyel sensor, transfected CHO-k1 cells): -logEC50 (M) of CCL19 (CCR7 L61A (human) [4]): 8.9 -logEC50 (M) | G protein signaling (BRET cAMP Camyel sensor, transfected CHO-k1 cells): FMut, fold change of CCL19 potency compared to WT CCR7 (CCR7 L61A (human) [4]): 3 fold | G protein signaling (BRET cAMP Camyel sensor, transfected CHO-k1 cells): -logEC50 (M) of CCL19 (CCR7 W114A (human) [5]): 8 -logEC50 (M) | G protein signaling (BRET cAMP Camyel sensor, transfected CHO-k1 cells): FMut, fold change of CCL19 potency compared to WT CCR7 (CCR7 W114A (human) [5]): 13 fold | G protein signaling (BRET cAMP Camyel sensor, transfected CHO-k1 cells): -logEC50 (M) of CCL19 (CCR7 F133A (human)): 8.7 -logEC50 (M) | G protein signaling (BRET cAMP Camyel sensor, transfected CHO-k1 cells): FMut, fold change of CCL19 potency compared to WT CCR7 (CCR7 F133A (human)): 1 fold | G protein signaling (BRET cAMP Camyel sensor, transfected CHO-k1 cells): -logEC50 (M) of CCL19 (CCR7 A118S (human)): 9.7 -logEC50 (M) | G protein signaling (BRET cAMP Camyel sensor, transfected CHO-k1 cells): FMut, fold change of CCL19 potency compared to WT CCR7 (CCR7 A118S (human)): 2 fold | G protein signaling (BRET cAMP Camyel sensor, transfected CHO-k1 cells): -logEC50 (M) of CCL19 (CCR7 Y65A (human)): 9 -logEC50 (M) | G protein signaling (BRET cAMP Camyel sensor, transfected CHO-k1 cells): FMut, fold change of CCL19 potency compared to WT CCR7 (CCR7 Y65A (human)): 2 fold | G protein signaling (BRET cAMP Camyel sensor, transfected CHO-k1 cells): -logEC50 (M) of CCL19 (CCR7 S117A (human)): 9.5 -logEC50 (M) | G protein signaling (BRET cAMP Camyel sensor, transfected CHO-k1 cells): FMut, fold change of CCL19 potency compared to WT CCR7 (CCR7 S117A (human)): 1 fold | G protein signaling (BRET cAMP Camyel sensor, transfected CHO-k1 cells): -logEC50 (M) of CCL19 (CCR7 E205A (human)): 9.2 -logEC50 (M) | G protein signaling (BRET cAMP Camyel sensor, transfected CHO-k1 cells): FMut, fold change of CCL19 potency compared to WT CCR7 (CCR7 E205A (human)): 3 fold | Transwell migration of stably transfected 300–19 pre-B cells: activity at 10 nM CCL19 relative to WT CCR7 (CCR7 R209A (human) [6]): 42 % of WT | G protein signaling (BRET cAMP Camyel sensor, CHO-k1 cells transfected with CCR7): logEC50 [7]: -9.4 logEC50 (M) | β-arrestin-2 recruitment (bystander BRET, CHO-k1 cells transfected with CCR7): logEC50 [7]: -7.9 logEC50 (M) | Transwell migration of stably transfected 300–19 pre-B cells: % specific migration at 10 nM CCL19 [8]: 11.6% | Transwell migration of stably transfected 300–19 pre-B cells: % specific migration at 10 nM CCL19 (CCR7 R209A (human) [9]): 5% | Transwell migration of stably transfected 300–19 pre-B cells: % specific migration at 10 nM CCL19 (CCR7 R54A (human) [10]): -0.1% | Transwell migration of stably transfected 300–19 pre-B cells: % specific migration at 10 nM CCL19 (CCR7 L61A (human) [11]): 7.5% | Transwell migration of stably transfected 300–19 pre-B cells: % specific migration at 10 nM CCL19 (CCR7 W114A (human) [12]): 1%
Molecule: human chemokine CCL19 (from UniProt Q99731 22-98) (ligand)

G protein signaling (BRET cAMP Camyel sensor, transfected CHO-k1 cells): efficacy at 100 nM CCL21, normalized to WT CCR7 (CCR7 Y308A (human)): 38 % of WT | G protein signaling (BRET cAMP Camyel sensor, transfected CHO-k1 cells): efficacy at 100 nM CCL21, normalized to WT CCR7 (CCR7 K57A (human)): 99 % of WT | G protein signaling (BRET cAMP Camyel sensor, transfected CHO-k1 cells): efficacy at 100 nM CCL21, normalized to WT CCR7 (CCR7 K137A (human)): 43 % of WT | G protein signaling (BRET cAMP Camyel sensor, transfected CHO-k1 cells): efficacy at 100 nM CCL21, normalized to WT CCR7 (CCR7 E193A (human)): 45 % of WT | G protein signaling (BRET cAMP Camyel sensor, transfected CHO-k1 cells): efficacy at 100 nM CCL21, normalized to WT CCR7 (CCR7 F107A (human)): 76 % of WT | G protein signaling (BRET cAMP Camyel sensor, transfected CHO-k1 cells): efficacy at 100 nM CCL21, normalized to WT CCR7 (CCR7 R209A (human) [2]): 132 % of WT | G protein signaling (BRET cAMP Camyel sensor, transfected CHO-k1 cells): efficacy at 100 nM CCL21, normalized to WT CCR7 (CCR7 N305A (human)): 53 % of WT | G protein signaling (BRET cAMP Camyel sensor, transfected CHO-k1 cells): efficacy at 100 nM CCL21, normalized to WT CCR7 (CCR7 L61A (human) [4]): 44 % of WT | G protein signaling (BRET cAMP Camyel sensor, transfected CHO-k1 cells): efficacy at 100 nM CCL21, normalized to WT CCR7 (CCR7 W114A (human) [5]): 32 % of WT | G protein signaling (BRET cAMP Camyel sensor, transfected CHO-k1 cells): efficacy at 100 nM CCL21, normalized to WT CCR7 (CCR7 F133A (human)): 27 % of WT | G protein signaling (BRET cAMP Camyel sensor, transfected CHO-k1 cells): efficacy at 100 nM CCL21, normalized to WT CCR7 (CCR7 A118S (human)): 67 % of WT | G protein signaling (BRET cAMP Camyel sensor, transfected CHO-k1 cells): efficacy at 100 nM CCL21, normalized to WT CCR7 (CCR7 Y65A (human)): 44 % of WT | G protein signaling (BRET cAMP Camyel sensor, transfected CHO-k1 cells): efficacy at 100 nM CCL21, normalized to WT CCR7 (CCR7 S117A (human)): 68 % of WT | G protein signaling (BRET cAMP Camyel sensor, transfected CHO-k1 cells): efficacy at 100 nM CCL21, normalized to WT CCR7 (CCR7 E205A (human)): 48 % of WT | Transwell migration of stably transfected 300–19 pre-B cells: activity at 10 nM CCL21 relative to WT CCR7 (CCR7 R209A (human) [6]): 2.5 fold | Transwell migration of stably transfected 300–19 pre-B cells: % specific migration at 10 nM CCL21 [8]: 5.1% | Transwell migration of stably transfected 300–19 pre-B cells: % specific migration at 10 nM CCL21 (CCR7 R209A (human) [9]): 10.6% | Transwell migration of stably transfected 300–19 pre-B cells: % specific migration at 10 nM CCL21 (CCR7 R54A (human) [10]): 0.3% | Transwell migration of stably transfected 300–19 pre-B cells: % specific migration at 10 nM CCL21 (CCR7 L61A (human) [11]): 4% | Transwell migration of stably transfected 300–19 pre-B cells: % specific migration at 10 nM CCL21 (CCR7 W114A (human) [12]): 0.6%
Molecule: human chemokine CCL21 (from UniProt O00585 24-134) (ligand)

G protein signaling (BRET cAMP Camyel sensor, CHO-k1 cells transfected with CCR7): logEC50 [1]: -8.9 logEC50 (M) | G protein signaling (BRET cAMP Camyel sensor, CHO-k1 cells transfected with CCR7): signal at 100 nM chemokine, normalized to CCL19 [1]: 90%
B1: CCL19^CCL21N-term chimera (ligand)
chain: SDGGAQDCCLKYSQRKIPGYIVRNFHYLLIKDGCRVPAVVFTTLRGRQLCAPPDQPWVERIIQRLQRTSAKMKRRSS
